From paper PMC3040440 (Journal of immunology (Baltimore, Md. : 1950), 2010)

Molecular target: hCD40-P227A, gain-of-function polymorphism of the human CD40 receptor (human, UniProt P25942 21-277, P227A)
Assay: co-IP

Sequence of hCD40-P227A, gain-of-function polymorphism of the human CD40 receptor (P25942 21-277 P227A): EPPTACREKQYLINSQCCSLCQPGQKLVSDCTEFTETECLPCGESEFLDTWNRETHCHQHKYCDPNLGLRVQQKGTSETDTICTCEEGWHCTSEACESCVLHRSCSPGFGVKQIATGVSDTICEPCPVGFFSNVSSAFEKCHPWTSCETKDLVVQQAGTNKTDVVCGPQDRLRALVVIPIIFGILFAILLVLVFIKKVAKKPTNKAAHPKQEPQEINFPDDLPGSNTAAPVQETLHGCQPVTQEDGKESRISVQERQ

fold bound relative to Wt-hCD40 [fold]	Binder
2	TNF receptor associated factor 3 (TRAF3) (natural protein, mouse (endogenous in CH12.LX), UniProt Q60803 1-567, looked up) MESSKKMDAAGTLQPNPPLKLQPDRGAGSVLVPEQGGYKEKFVKTVEDKYKCEKCRLVLCNPKQTECGHRFCESCMAALLSSSSPKCTACQESIIKDKVFKDNCCKREILALQVYCRNEGRGCAEQLTLGHLLVHLKNECQFEELPCLRADCKEKVLRKDLRDHVEKACKYREATCSHCKSQVPMIKLQKHEDTDCPCVVVSCPHKCSVQTLLRSELSAHLSECVNAPSTCSFKRYGCVFQGTNQQIKAHEASSAVQHVNLLKEWSNSLEKKVSLLQNESVEKNKSIQSLHNQICSFEIEIERQKEMLRNNESKILHLQRVIDSQAEKLKELDKEIRPFRQNWEEADSMKSSVESLQNRVTELESVDKSAGQAARNTGLLESQLSRHDQMLSVHDIRLADMDLRFQVLETASYNGVLIWKIRDYKRRKQEAVMGKTLSLYSQPFYTGYFGYKMCARVYLNGDGMGKGTHLSLFFVIMRGEYDALLPWPFKQKVTLMLMDQGSSRRHLGDAFKPDPNSSSFKKPTGEMNIASGCPVFVAQTVLENGTYIKDDTIFIKVIVDTSDLPDP
2	TNF receptor associated factor 5 (TRAF5) (natural protein, mouse (endogenous in CH12.LX), UniProt P70191 1-558, looked up) MAHSEEQAAVPCAFIRQNSGNSISLDFEPDTEYQFVEQLEERYKCAFCHSVLHNPHQTGCGHRFCQQCIRSLRELNSVPICPVDKEVIKPQEVFKDNCCKREVLNLHVYCKNAPGCNARIILGRFQDHLQHCSFQAVPCPNESCREAMLRKDVKEHLSAYCRFREEKCLYCKRDIVVTNLQDHEENSCPAYPVSCPNRCVQTIPRARVNEHLTVCPEAEQDCPFKHYGCTVKGKRGNLLEHERAALQDHMLLVLEKNYQLEQRISDLYQSLEQKESKIQQLAETVKKFEKELKQFTQMFGRNGTFLSNVQALTSHTDKSAWLEAQVRQLLQIVNQQPSRLDLRSLVDAVDSVKQRITQLEASDQRLVLLEGETSKHDAHINIHKAQLNKNEERFKQLEGACYSGKLIWKVTDYRVKKREAVEGHTVSVFSQPFYTSRCGYRLCARAYLNGDGSGKGTHLSLYFVVMRGEFDSLLQWPFRQRVTLMLLDQSGKKNHIVETFKADPNSSSFKRPDGEMNIASGCPRFVSHSTLENSKNTYIKDDTLFLKVAVDLTDLEDL
